Measurements: PMC12343972 (Nature Communications, 2025)

Tests used:
Rad50-K1181A K1183A = molecular target: T1, Rad50-K1181A K1183A (Saccharomyces cerevisiae, UniProt P12753 1-1312, K1181A;K1183A); assay: EMSA
T1 sequence: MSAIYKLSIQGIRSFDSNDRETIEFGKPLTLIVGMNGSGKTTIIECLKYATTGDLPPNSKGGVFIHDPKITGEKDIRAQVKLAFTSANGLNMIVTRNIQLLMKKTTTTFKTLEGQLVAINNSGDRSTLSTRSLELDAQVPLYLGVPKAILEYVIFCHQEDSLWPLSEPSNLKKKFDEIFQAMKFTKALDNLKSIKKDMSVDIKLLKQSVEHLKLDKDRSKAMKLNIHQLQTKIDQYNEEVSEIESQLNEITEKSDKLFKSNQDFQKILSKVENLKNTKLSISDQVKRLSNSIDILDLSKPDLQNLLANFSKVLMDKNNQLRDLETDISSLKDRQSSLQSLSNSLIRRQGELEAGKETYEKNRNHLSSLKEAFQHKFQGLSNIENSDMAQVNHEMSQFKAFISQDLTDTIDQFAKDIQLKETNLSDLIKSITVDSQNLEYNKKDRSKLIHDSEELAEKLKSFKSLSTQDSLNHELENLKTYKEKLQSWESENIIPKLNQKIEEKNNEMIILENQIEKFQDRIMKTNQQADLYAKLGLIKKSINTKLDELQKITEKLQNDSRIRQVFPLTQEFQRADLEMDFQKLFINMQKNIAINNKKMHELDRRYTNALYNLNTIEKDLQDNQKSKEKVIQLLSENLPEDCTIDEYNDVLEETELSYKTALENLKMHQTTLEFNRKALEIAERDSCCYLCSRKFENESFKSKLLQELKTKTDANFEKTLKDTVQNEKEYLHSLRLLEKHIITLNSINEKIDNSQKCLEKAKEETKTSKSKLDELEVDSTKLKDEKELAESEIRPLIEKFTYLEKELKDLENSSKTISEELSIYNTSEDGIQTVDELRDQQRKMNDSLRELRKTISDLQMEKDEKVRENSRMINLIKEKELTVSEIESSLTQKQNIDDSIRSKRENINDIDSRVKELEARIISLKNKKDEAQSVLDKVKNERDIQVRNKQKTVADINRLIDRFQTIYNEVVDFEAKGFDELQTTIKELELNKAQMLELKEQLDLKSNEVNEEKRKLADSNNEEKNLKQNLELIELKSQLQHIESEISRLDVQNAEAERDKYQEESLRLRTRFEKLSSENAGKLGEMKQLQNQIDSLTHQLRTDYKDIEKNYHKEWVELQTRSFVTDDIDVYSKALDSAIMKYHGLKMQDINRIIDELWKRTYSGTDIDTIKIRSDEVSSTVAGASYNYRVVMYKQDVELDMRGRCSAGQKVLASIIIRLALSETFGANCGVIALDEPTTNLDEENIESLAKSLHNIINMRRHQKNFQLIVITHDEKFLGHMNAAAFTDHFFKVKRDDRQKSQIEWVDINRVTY

Rad50-3KA = molecular target: T2, Rad50-3KA (Saccharomyces cerevisiae, UniProt P12753 1-1312, K192A;K195A;K196A); assay: EMSA
T2 sequence: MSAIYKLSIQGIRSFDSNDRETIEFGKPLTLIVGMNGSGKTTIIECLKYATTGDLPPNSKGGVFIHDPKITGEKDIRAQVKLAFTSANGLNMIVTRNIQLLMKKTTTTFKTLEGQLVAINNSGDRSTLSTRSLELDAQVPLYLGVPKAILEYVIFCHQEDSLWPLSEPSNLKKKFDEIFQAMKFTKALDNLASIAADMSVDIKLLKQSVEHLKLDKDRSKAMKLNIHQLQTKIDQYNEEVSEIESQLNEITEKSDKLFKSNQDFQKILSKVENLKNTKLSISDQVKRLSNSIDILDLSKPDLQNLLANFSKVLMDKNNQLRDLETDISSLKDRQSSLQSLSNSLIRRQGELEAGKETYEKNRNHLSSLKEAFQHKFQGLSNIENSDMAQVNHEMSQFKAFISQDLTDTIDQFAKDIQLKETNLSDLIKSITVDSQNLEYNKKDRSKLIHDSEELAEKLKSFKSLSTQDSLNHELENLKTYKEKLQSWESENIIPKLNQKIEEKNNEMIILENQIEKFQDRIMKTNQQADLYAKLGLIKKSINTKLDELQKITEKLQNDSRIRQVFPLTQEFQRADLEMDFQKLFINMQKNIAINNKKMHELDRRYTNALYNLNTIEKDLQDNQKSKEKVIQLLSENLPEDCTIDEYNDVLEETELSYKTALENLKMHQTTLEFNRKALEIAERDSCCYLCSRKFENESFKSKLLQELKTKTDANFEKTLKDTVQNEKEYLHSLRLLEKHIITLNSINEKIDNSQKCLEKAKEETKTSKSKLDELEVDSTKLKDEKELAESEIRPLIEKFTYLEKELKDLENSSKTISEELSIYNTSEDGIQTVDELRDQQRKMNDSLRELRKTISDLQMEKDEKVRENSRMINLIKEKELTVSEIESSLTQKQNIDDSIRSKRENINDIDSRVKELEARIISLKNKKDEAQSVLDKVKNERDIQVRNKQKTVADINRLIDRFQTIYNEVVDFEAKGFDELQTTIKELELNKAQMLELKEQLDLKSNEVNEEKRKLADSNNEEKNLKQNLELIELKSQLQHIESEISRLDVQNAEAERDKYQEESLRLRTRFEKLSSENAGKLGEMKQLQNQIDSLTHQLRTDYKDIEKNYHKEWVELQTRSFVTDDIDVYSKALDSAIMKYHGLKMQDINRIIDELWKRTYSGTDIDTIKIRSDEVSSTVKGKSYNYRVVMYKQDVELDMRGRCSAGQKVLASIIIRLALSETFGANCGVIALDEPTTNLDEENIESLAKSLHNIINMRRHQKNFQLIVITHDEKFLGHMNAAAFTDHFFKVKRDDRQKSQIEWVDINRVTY

B1: 83-mer dsDNA (EMSA) (dsDNA)
DNA 1: TTGATAAGAGGTCATTTTTGCGGATGGCTTAGAGCTTAATTGCTGAATCTGGTGCTGTAGCTCAACATGTTTTAAATATGCAA
DNA 2: TTGCATATTTAAAACATGTTGAGCTACAGCACCAGATTCAGCAATTAAGCTCTAAGCCATCCGCAAAAATGACCTCTTATCAA
- binding result (Rad50-K1181A K1183A): binds
- binding result (Rad50-3KA): binds
